From patent US20190263934A1

Experiments:
[1] = biological target: biotinylated hFcRn (human) (UniProt P55899); experiment: SPR Biacore, pH 7.4
rFcRn (rat) [2] = biological target: rFcRn (rat) (UniProt P13599); experiment: BLI Octet, pH 6.0, purified antibody
Target sequence in this assay (P13599 23-298 limits assumed, form in doubt, chain 1 of 2): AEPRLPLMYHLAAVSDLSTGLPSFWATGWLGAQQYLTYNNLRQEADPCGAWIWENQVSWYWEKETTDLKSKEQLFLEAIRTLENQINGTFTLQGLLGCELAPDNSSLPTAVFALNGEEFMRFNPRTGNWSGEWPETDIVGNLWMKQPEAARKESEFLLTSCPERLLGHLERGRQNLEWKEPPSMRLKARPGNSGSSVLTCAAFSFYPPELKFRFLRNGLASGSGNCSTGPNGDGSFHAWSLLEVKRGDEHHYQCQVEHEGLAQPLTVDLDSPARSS
Target sequence in this assay (P07151 21-119 limits assumed, form in doubt, chain 2 of 2, further chain): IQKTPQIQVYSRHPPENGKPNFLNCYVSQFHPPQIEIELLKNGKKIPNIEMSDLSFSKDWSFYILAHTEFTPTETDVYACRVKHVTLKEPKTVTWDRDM

[3] = biological target: biotinylated hFcRn (human) (UniProt P55899); experiment: SPR Biacore, pH 6.0
rFcRn (rat) [4] = biological target: rFcRn (rat) (UniProt P13599); experiment: SPR Biacore, pH 6.0
Target sequence in this assay (P13599 23-298 limits assumed, form in doubt, chain 1 of 2): as the sequence (P13599 23-298 limits assumed, form in doubt, chain 1 of 2) above
Target sequence in this assay (P07151 21-119 limits assumed, form in doubt, chain 2 of 2, further chain): as the sequence (P07151 21-119 limits assumed, form in doubt, chain 2 of 2, further chain) above

[5] = biological target: biotinylated hFcRn (human) (UniProt P55899); experiment: SPR Biacore, pH 7.4, 1000 nM antibody
rFcRn (rat) [6] = biological target: rFcRn (rat) (UniProt P13599); experiment: SPR Biacore, pH 7.4, 1000 nM antibody
Target sequence in this assay (P13599 23-298 limits assumed, form in doubt, chain 1 of 2): as the sequence (P13599 23-298 limits assumed, form in doubt, chain 1 of 2) above
Target sequence in this assay (P07151 21-119 limits assumed, form in doubt, chain 2 of 2, further chain): as the sequence (P07151 21-119 limits assumed, form in doubt, chain 2 of 2, further chain) above

[7] = biological target: biotinylated human FcRn (hFcRn; p51 subunit residues 24-297 with C-terminal Avi-tag, β2-m residues 21-119) (human) (UniProt P55899); experiment: Biacore SPR; pH 6.0 affinity (M^-1) over pH 7.4 steady state RU
[8] = biological target: biotinylated human FcRn (hFcRn; p51 subunit residues 24-297 with C-terminal Avi-tag, β2-m residues 21-119) (human) (UniProt P55899); experiment: Biacore SPR; second ratio column (inverse of c7)
[9] = biological target: biotinylated human FcRn (hFcRn; p51 subunit residues 24-297 with C-terminal Avi-tag, β2-m residues 21-119) (human) (UniProt P55899); experiment: Biacore SPR, Biotin CAPture of biotinylated human FcRn, pH 6.0
[10] = biological target: biotinylated human FcRn (hFcRn; p51 subunit residues 24-297 with C-terminal Avi-tag, β2-m residues 21-119) (human) (UniProt P55899); experiment: Biacore SPR, human FcRn, pH 6.0 (column 'Affinity, pH 6.0 (nM)')
[11] = biological target: biotinylated human FcRn (hFcRn; p51 subunit residues 24-297 with C-terminal Avi-tag, β2-m residues 21-119) (human) (UniProt P55899); experiment: Biacore SPR, human FcRn, pH 7.4, steady state
[12] = biological target: biotinylated human FcRn (hFcRn; p51 subunit residues 24-297 with C-terminal Avi-tag, β2-m residues 21-119) (human) (UniProt P55899); experiment: Biacore SPR, pH 6.0, apparent affinity
[13] = biological target: Human CD16a (FcγRIIIa residues 17-208, C-terminal HPC4 tag, valine at position 158) (human) (UniProt P08637); experiment: Biacore SPR, HPC4-captured FcγRIIIa-V158, pH 7.4
[14] = biological target: biotinylated human FcRn (hFcRn; p51 subunit residues 24-297 with C-terminal Avi-tag, β2-m residues 21-119) (human) (UniProt P55899); experiment: Biacore SPR, Biotin CAPture, pH 7.4, 1000 nM antibody, steady state
[15] = biological target: biotinylated human FcRn (hFcRn; p51 subunit residues 24-297 with C-terminal Avi-tag, β2-m residues 21-119) (human) (UniProt P55899); experiment: Biacore SPR, pH 7.4, steady state, 1000 nM antibody
rFcRn (rat) [16] = biological target: rFcRn (rat) (UniProt P13599); experiment: BLI Octet screen, pH 6.0
Target sequence in this assay (P13599 23-298 limits assumed, form in doubt, chain 1 of 2): as the sequence (P13599 23-298 limits assumed, form in doubt, chain 1 of 2) above
Target sequence in this assay (P07151 21-119 limits assumed, form in doubt, chain 2 of 2, further chain): as the sequence (P07151 21-119 limits assumed, form in doubt, chain 2 of 2, further chain) above

[17] = biological target: Human CD16a (FcγRIIIa) V158 with C-terminal HPC4 tag (human) (UniProt P08637); experiment: SPR Biacore FcγRIIIa
[18] = biological target: biotinylated hFcRn (human) (UniProt P55899); experiment: SPR Biacore, pH 7.4; remark: listed apart in the source
rFcRn (rat) [19] = biological target: rFcRn (rat) (UniProt P13599); experiment: SPR Biacore, pH 7.4
Target sequence in this assay (P13599 23-298 limits assumed, form in doubt, chain 1 of 2): as the sequence (P13599 23-298 limits assumed, form in doubt, chain 1 of 2) above
Target sequence in this assay (P07151 21-119 limits assumed, form in doubt, chain 2 of 2, further chain): as the sequence (P07151 21-119 limits assumed, form in doubt, chain 2 of 2, further chain) above

[20] = biological target: Human CD16a (FcγRIIIa) V158 with C-terminal HPC4 tag (human) (UniProt P08637); experiment: SPR Biacore, captured FcγRIIIa-V158
[21] = biological target: biotinylated hFcRn (human) (UniProt P55899); experiment: Biacore SPR, pH 6.0, bivalent fit
rFcRn (rat) [22] = biological target: rFcRn (rat) (UniProt P13599); experiment: Biacore SPR, pH 6.0, bivalent fit
Target sequence in this assay (P13599 23-298, form in doubt, chain 1 of 2): as the sequence (P13599 23-298 limits assumed, form in doubt, chain 1 of 2) above
Target sequence in this assay (P07151 21-119, form in doubt, chain 2 of 2, further chain): as the sequence (P07151 21-119 limits assumed, form in doubt, chain 2 of 2, further chain) above

[23] = biological target: biotinylated hFcRn (human) (UniProt P55899); experiment: SPR Biacore, pH 6.0; remark: listed apart in the source
rFcRn (rat) [24] = biological target: rFcRn (rat) (UniProt P13599); experiment: SPR Biacore, pH 6.0; remark: listed apart in the source
Target sequence in this assay (P13599 23-298 limits assumed, form in doubt, chain 1 of 2): as the sequence (P13599 23-298 limits assumed, form in doubt, chain 1 of 2) above
Target sequence in this assay (P07151 21-119 limits assumed, form in doubt, chain 2 of 2, further chain): as the sequence (P07151 21-119 limits assumed, form in doubt, chain 2 of 2, further chain) above

Chain of Human CD16a (FcγRIIIa) V158 with C-terminal HPC4 tag (human) (P08637 17-208 F176V): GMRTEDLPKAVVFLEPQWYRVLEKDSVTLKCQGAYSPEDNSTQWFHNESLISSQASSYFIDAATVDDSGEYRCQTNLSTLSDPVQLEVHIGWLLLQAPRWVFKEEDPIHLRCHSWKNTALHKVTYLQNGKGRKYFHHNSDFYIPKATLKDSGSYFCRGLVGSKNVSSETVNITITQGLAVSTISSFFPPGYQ
Chain of Human CD16a (FcγRIIIa residues 17-208, C-terminal HPC4 tag, valine at position 158) (human) (P08637 17-208 F176V): as above

Substance | Steady State RU [1] [RU] | koff (rFcRn (rat) [2]) [s⁻¹] | Kd [3] [nM] | koff [3] [s⁻¹] | kon [3] [M⁻¹ s⁻¹] | Kd (rFcRn (rat) [4]) [nM] | koff (rFcRn (rat) [4]) [s⁻¹] | kon (rFcRn (rat) [4]) [M⁻¹ s⁻¹] | Steady State RU [5] [RU] | Steady State RU (rFcRn (rat) [6]) [RU] | Steady State RU [18] [RU] | Steady State RU (rFcRn (rat) [19]) [RU] | FcγRIIIa V158 Affinity Fold Change (relative to WT) [20] [fold] | koff [23] [s⁻¹] | kon [23] [M⁻¹ s⁻¹] | Kd (rFcRn (rat) [24]) [nM] | also measured
mAb1 T307A/E380A/N434A (antibody) | 13.1 | 0.00377 | 1780 | 0.144 | 83700 | 77 | 0.0117 | 157000 | 13.9 | 23.6 | – | – | – | – | – | – | –
mAb1 YDWY variant (M252Y/T256D/T307W/N434Y) (antibody) | – | – | – | – | – | – | – | – | – | – | – | – | – | – | – | – | Ratio (pH 6.0/pH 7.4) [7]: 3.01e+06; Ratio (pH 6.0/pH 7.4) [8]: 3.33e-07; Kd [9]: 5.2 nM; Kd [10]: 5.2 nM; Steady State RU (pH 7.4) [11]: 91.2 RU; Ka [12]: 2.66e+08 M⁻¹; FcγRIIIa Binding (RU) [13]: 104 RU; pH 7.4 RU [14]: 91.2 RU; Steady State Binding, pH 7.4 (RU) [15]: 88.5 RU
mAb1 N434F (antibody) | – | 0.00118 | 165 | 0.05 | 354000 | 26 | 0.00336 | 126000 | 20.1 | 54.9 | 22.2 | 61.5 | 1.16 | – | 350000 | – | fold slower off-rate vs WT (rFcRn (rat) [16]): > 2 fold; % enhanced binding vs WT [17]: 16 to 40%; Kd [21]: 165 nM; koff [21]: 0.05 s⁻¹; kon [21]: 350000 M⁻¹ s⁻¹; Kd (rFcRn (rat) [22]): 26 nM; koff (rFcRn (rat) [22]): 0.0034 s⁻¹; kon (rFcRn (rat) [22]): 126000 M⁻¹ s⁻¹
mAb1 YDQY variant (M252Y/T256D/T307Q/N434Y) (antibody) | – | – | – | – | – | – | – | – | – | – | – | – | – | – | – | – | Ratio (pH 6.0/pH 7.4) [7]: 2.93e+06; Ratio (pH 7.4/pH 6.0) [8]: 3.41e-07; Kd [9]: 2.7 nM; Kd [10]: 2.7 nM; Steady State RU (pH 7.4) [11]: 103 RU; Ka [12]: 2.35e+08 M⁻¹; FcγRIIIa Binding (RU) [13]: 119 RU; pH 7.4 RU [14]: 103 RU; Steady State Binding, pH 7.4 (RU) [15]: 80.2 RU
mAb1 M428L/N434S (antibody) | 18.5 | 0.00338 | – | 0.052 | 193000 | 74 | 0.00658 | 90800 | 18.3 | 24.8 | 18.3 | 24.8 | 1.04 | 0.5 | 19000 | – | Kd [23]: 272 nM

Continued by falling Kd (rFcRn (rat) [4]), values first:

Steady State RU [1] [RU] | koff (rFcRn (rat) [2]) [s⁻¹] | Kd [3] [nM] | koff [3] [s⁻¹] | kon [3] [M⁻¹ s⁻¹] | Kd (rFcRn (rat) [4]) [nM] | koff (rFcRn (rat) [4]) [s⁻¹] | kon (rFcRn (rat) [4]) [M⁻¹ s⁻¹] | Steady State RU [5] [RU] | Steady State RU (rFcRn (rat) [6]) [RU] | Steady State RU [18] [RU] | Steady State RU (rFcRn (rat) [19]) [RU] | FcγRIIIa V158 Affinity Fold Change (relative to WT) [20] [fold] | koff [23] [s⁻¹] | kon [23] [M⁻¹ s⁻¹] | Kd (rFcRn (rat) [24]) [nM] | Substance | also measured
– | 0.00133 | 137 | 0.052 | 359000 | 23 | 0.00346 | 145000 | 22.6 | 47 | 25.5 | 66 | 1.41 | 0.05 | 360000 | – | mAb1 N434Y (antibody) | fold slower off-rate vs WT (rFcRn (rat) [16]): > 2 fold; % enhanced binding vs WT [17]: 16 to 40%; Kd [21]: 137 nM; koff [21]: 0.05 s⁻¹; kon [21]: 360000 M⁻¹ s⁻¹; Kd (rFcRn (rat) [22]): 23 nM; koff (rFcRn (rat) [22]): 0.0035 s⁻¹; kon (rFcRn (rat) [22]): 145000 M⁻¹ s⁻¹
13.1 | 0.00066 | – | 0.045 | – | 18 | 0.00121 | – | 13.2 | 53.9 | 13.2 | 53.9 | – | – | – | – | mAb1 M252Y/S254T/T256E (antibody) | % reduction in binding response vs wild-type [17]: 50%; Kd [23]: 342 nM
– | – | 232 | 0.0872 | 376000 | 9.54 | 0.00127 | 133000 | – | – | 10.7 | 39.1 | 0.73 | 0.87 | 38000 | 9.5 | mAb1 T256D/T307Q (antibody) | –
– | – | 169 | 0.0892 | 529000 | 8.24 | 0.00129 | 157000 | – | – | 12.2 | 42.1 | 0.89 | 0.89 | 53000 | 8.2 | mAb1 T256D/T307W (antibody) | –
– | – | – | – | – | 5.86 | – | – | – | – | 9.7 | 56 | – | – | – | 5.9 | mAb1 M252Y/T256D (antibody) | –
